Here are results for 1 substance from patent US20190328865A1.

The target of the experiment is dipeptidyl peptidase 4 (DPP4), cellular receptor on Huh-7 cells (human) (UniProt P27487). The experiment is described as follows: cell-based or functional assay.
Sequence of UniProt P27487 (P27487 whole entry): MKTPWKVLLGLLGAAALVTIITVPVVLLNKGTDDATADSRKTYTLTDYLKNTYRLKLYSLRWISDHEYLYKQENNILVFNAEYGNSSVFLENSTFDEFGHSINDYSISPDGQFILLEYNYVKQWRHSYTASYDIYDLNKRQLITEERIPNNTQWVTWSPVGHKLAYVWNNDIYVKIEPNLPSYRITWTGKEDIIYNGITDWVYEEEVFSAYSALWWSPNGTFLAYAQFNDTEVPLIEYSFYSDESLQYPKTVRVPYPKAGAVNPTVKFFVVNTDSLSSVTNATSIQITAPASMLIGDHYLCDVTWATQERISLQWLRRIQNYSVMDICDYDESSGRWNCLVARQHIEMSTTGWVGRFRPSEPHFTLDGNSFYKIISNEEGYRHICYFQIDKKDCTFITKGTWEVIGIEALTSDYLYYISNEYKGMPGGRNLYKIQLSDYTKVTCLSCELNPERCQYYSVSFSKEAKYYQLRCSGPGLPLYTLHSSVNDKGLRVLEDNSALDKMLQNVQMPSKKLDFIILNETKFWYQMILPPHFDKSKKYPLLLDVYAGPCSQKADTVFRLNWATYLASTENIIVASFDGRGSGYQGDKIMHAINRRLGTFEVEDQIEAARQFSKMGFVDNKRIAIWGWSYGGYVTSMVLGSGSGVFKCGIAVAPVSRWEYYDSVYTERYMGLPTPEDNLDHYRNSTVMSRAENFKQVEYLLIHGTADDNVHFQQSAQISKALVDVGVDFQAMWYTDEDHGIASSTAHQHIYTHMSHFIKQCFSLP

The substance “S377-588-Fc (residues 377-588 of MERS-CoV S protein fused to Fc of human IgG) (Fc fusion)” had an inhibition of CPE formation caused by MERS-CoV infection in Calu-3 cells of 3 µg/mL.
